From patent US20050004353A1 (Amgen, published 2005)
Where a chain is given by its changes, count along the chain named. “And” between values parts separate entries of the source, which are not always exact repeats. Equal entries are not always repeated. Each block holds one binder with its values, some of them ahead of it.

What was measured:
[1] = target: T1, human interferon-gamma (IFN-γ) (human, UniProt P01579 24-161); experiment: cell-based or functional assay
T1 sequence (looked up): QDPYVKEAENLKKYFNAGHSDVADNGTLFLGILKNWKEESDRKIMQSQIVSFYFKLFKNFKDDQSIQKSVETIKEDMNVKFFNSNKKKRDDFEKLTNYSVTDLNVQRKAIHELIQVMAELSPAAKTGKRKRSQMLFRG

[2] = target: T1, human interferon-gamma (IFN-γ); experiment: ELISA on plates coated with recombinant IFN-γ, antibody purified from hybridoma supernatant
[3] = target: T1, human interferon-gamma (IFN-γ); experiment: equilibrium-binding assay in solution, free antibody captured on IFN-γ coupled beads, KinExA
Procedure: Binding kinetics for several of the antibodies to IFN-γ were measured by BIAcore analysis. […] Accordingly, an equilibrium-binding assay was developed and used. A fixed amount of antibody was incubated with various concentrations of IFN-γ for greater than 5 hours in order to reach equilibrium and then contacted with IFN-γ coupled beads for a very brief time, and the amount of free antibody that bound to the beads was measured in a KINEXA™ machine (Sapidyne Instruments Inc., Boise, Id.), a fluorescence based immunoassay instrument. The lowest equilibrium dissociation constant obtained, ˜24 pM, was with the 1119 antibody.

[4] = target: T2, huIFN-γS103 (human, UniProt P01579 24-161); experiment: cell-based or functional assay
T2 sequence (looked up): T1 sequence (looked up) with L103S

[5] = target: T3, huIFN-γI77 (human, UniProt P01579 24-161); experiment: cell-based or functional assay
T3 sequence (looked up): T1 sequence (looked up) with M77I

[6] = target: T4, huIFN-γI126 (human, UniProt P01579 24-161); experiment: cell-based or functional assay
T4 sequence (looked up): T1 sequence (looked up) with T126I

[7] = target: T5, huIFN-γR65 (human, UniProt P01579 24-161); experiment: cell-based or functional assay
T5 sequence (looked up): T1 sequence (looked up) with S65R

[8] = target: T6, cynomolgus monkey IFN-γ (cynomolgus monkey, UniProt P63309 24-165); experiment: cell-based or functional assay
T6 sequence (looked up): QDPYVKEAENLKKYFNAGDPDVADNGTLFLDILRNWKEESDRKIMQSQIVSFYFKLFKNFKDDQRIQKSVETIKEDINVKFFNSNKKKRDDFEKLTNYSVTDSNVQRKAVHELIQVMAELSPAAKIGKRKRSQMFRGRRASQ

[9] = target: T7, huIFN-γV110 (human, UniProt P01579 24-161); experiment: cell-based or functional assay
T7 sequence (looked up): T1 sequence (looked up) with I110V

[10] = target: T8, huIFN-γD19 (human, UniProt P01579 24-161); experiment: cell-based or functional assay
T8 sequence (looked up): T1 sequence (looked up) with H19D

[11] = target: T9, huIFN-γD31 (human, UniProt P01579 24-161); experiment: cell-based or functional assay
T9 sequence (looked up): T1 sequence (looked up) with G31D

[12] = target: T10, huIFN-γP20 (human, UniProt P01579 24-161); experiment: cell-based or functional assay
T10 sequence (looked up): T1 sequence (looked up) with S20P

[13] = target: T11, huIFN-γR34 (human, UniProt P01579 24-161); experiment: cell-based or functional assay
T11 sequence (looked up): T1 sequence (looked up) with K34R

B1: 1121 anti-IFN-γ antibody (antibody, V domains shown)
VH: EVQLVQSGAEVKKPGESLKISCKGSGYNFTSYWIGWVRQMPGKGLEWMGIIYPGDSDTRYSPSFQGQVTISADKSISTAYLQWSSLKASDTAMYYCGSGSYWYFDLWGRGTLVTVSS
VL: EIVLTQSPGTLSLSPGERATLSCRASQSVSSSYLAWYQQKPGQAPRLLIYGASSRATGIPDRFSGSGSGTDFTLTISRLEPEDFAVYYCQRSGGSSFTFGPGTKVDIKR
IC50, A549 bioassay (inhibition of the anti-proliferative effect of IFN-γ, 30 pM IFN-γ) [1]: 46 pM
IC50, THP-1/HLA DR bioassay (21 pM IFN-γ) [1]: 60 pM

B4: 1118 anti-IFN-γ antibody (antibody, V domains shown)
VH: B1 VH with N28S
VL: B1 VL with Y33S
IC50, A549 bioassay (inhibition of the anti-proliferative effect of IFN-γ, 30 pM IFN-γ) [1]: 97 pM
IC50, THP-1/HLA DR bioassay (21 pM IFN-γ) [1]: 86 pM

Further lines, results first:

binding result [2]: binds
B2: 1121* anti-IFN-γ antibody (antibody, human IgG1, kappa, V domains shown)
VH: B1 VH
VL: EIVLTQSPGTLSLSPGERATLSCRASQSIISSYLAWYQQKPGQTPRLLIYGVSSRATGIPDRFSGSGSGTDFTLTITRLEPEDFAVYYCQQYGNSFMYTFGQGTKLEIKR
notes: the ELISA used antibody purified from hybridoma supernatant

Kd [3]: ~0.024 nM
% Neutralization by 1119 (A549 bioassay) [4]: 102%
% Neutralization by 1119 (A549 bioassay) [5]: 108%
% Neutralization by 1119 (A549 bioassay) [6]: 109%
% Neutralization by 1119 (A549 bioassay) [7]: 109%
% Neutralization by 1119 (A549 bioassay) [8]: 0%
% Neutralization by 1119 (A549 bioassay) [9]: 103%
% Neutralization by 1119 (A549 bioassay) [10]: 0%
% Neutralization by 1119 (A549 bioassay) [11]: 103%
% Neutralization by 1119 (A549 bioassay) [12]: 0%
% Neutralization by 1119 (A549 bioassay) [13]: 109%
IC50, A549 bioassay (inhibition of the anti-proliferative effect of IFN-γ, 30 pM IFN-γ) [1]: 14 pM
IC50, THP-1/HLA DR bioassay (21 pM IFN-γ) [1]: 14 pM
IC50, human whole blood bioassay (IFN-γ-induced IP-10 production), one of two donors [1]: 0.017 nM and 0.014 nM
B3: 1119 anti-IFN-γ antibody (antibody, human IgG1, kappa, V domains shown)
VH: B1 VH with W47L, W102F
VL: B1 VL
notes: also called 1119 antibody; 1119 mAb
